In paper PMC8163800, “Extreme parsimony in ATP consumption by 20S complexes in the global disassembly of single SNARE complexes” (Nature Communications, 2021):

B2: NSF-SNAP tag (wild-type NSF with a C-terminal SNAP tag), labelled hexamer (enzyme, Chinese hamster)
chain: MAGRSMQAARCPTDELSLSNCAVVSEKDYQSGQHVIVRTSPNHKYIFTLRTHPSVVPGSVAFSLPQRKWAGLSIGQEIEVALYSFDKAKQCIGTMTIEIDFLQKKNIDSNPYDTDKMAAEFIQQFNNQAFSVGQQLVFSFNDKLFGLLVKDIEAMDPSILKGEPASGKRQKIEVGLVVGNSQVAFEKAENSSLNLIGKAKTKENRQSIINPDWNFEKMGIGGLDKEFSDIFRRAFASRVFPPEIVEQMGCKHVKGILLYGPPGCGKTLLARQIGKMLNAREPKVVNGPEILNKYVGESEANIRKLFADAEEEQRRLGANSGLHIIIFDEIDAICKQRGSMAGSTGVHDTVVNQLLSKIDGVEQLNNILVIGMTNRPDLIDEALLRPGRLEVKMEIGLPDEKGRLQILHIHTARMRGHQLLSADVDIKELAVETKNFSGAELEGLVRAAQSTAMNRHIKASTKVEVDMEKAESLQVTRGDFLASLENDIKPAFGTNQEDYASYIMNGIIKWGDPVTRVLDDGELLVQQTKNSDRTPLVSVLLEGPPHSGKTALAAKIAEESNFPFIKICSPDKMIGFSETAKCQAMKKIFDDAYKSQLSCVVVDDIERLLDYVPIGPRFSNLVLQALLVLLKKAPPQGRKLLIIGTTSRKDVLQEMEMLNAFSTTIHVPNIATGEQLLEALELLGNFKDKERTTIAQQVKGKKVWIGIKKLLMLIEMSLQMDPEYRVRKFLALLREEGASPLDFD
modifications: BG-Alexa647 or BG-DY549 dye on the SNAP tag
notes: N-ethylmaleimide sensitive factor (NSF), Chinese hamster, wild type; also called DY549-labeled NSF; SNAP-tag-labeled WT; source: expressed from pET28a in autoinduction LB medium, purified (Ni-NTA, Superdex 200); not shown: SNAP tag (GGSG linker), C-terminal, kept

What was measured:
[1] = molecular target: B2; assay: single-molecule fluorescence co-localisation with counting of photobleaching steps (TIRF); SNARE vesicles (1:30,000 protein/lipid) held on NeutrAvidin; 100 nM SNAP-tag-αSNAP, then 1 nM Dylight549-labelled NSF with 1 mM ATP and 1 mM EDTA; H50N50 buffer; settings: both partners purified
[2] = molecular target: the molecule itself; assay: SEC; Superdex 200 16/600 in NSF buffer (50 mM HEPES pH 7.4, 150 mM NaCl, 1 mM DTT, 1 mM ATP, 1 mM EDTA, 10% glycerol)

B1: SNAP-tag-αSNAP labelled with BG-Alexa647 (natural protein, bovine, UniProt P81125 1-295, looked up)
chain: MDNSGKEAEAMALLAEAERKVKNSQSFFSGLFGGSSKIEEACEIYARAANMFKMAKNWSAAGSAFCQAAHVHLQLQSKHDAATCFVDAGNAFKKADPQEAINCLMRAIEIYTDMGRFTIAAKHHISIAEIYETELVDIEKAIAHYEQSADYYKGEESNSSANKCLLKVAGYAAQLEQYQKAIDIYEQVGTNAMDSPLLKYSAKDYFFKAALCHFCIDMLNAKLAVQKYEELFPAFSDSRECKRIKKLLEAHEEQNVDSYTEAVKEYDSISRLDQWLTTMLLRIKKTIQGDEEDLR
modifications: BG-Alexa647 dye on the SNAP tag
notes: alpha-soluble NSF attachment protein (αSNAP), bovine; also called SNAP-tag-fused αSNAPs; Alexa647-labeled αSNAP; source: expressed in LB medium with IPTG, purified (Ni-NTA, Superdex 200); not shown: SNAP tag (GGSGGSG linker), N-terminal, kept
**Q.** Does B1 bind [1]?
**A.** binds

**Q.** With B2 as the binder, how does the “stoichiometry N” value [2] read?
**A.** 6
